Experimental findings from the supplement of paper PMC10567573 are described below.

The chains are these.
B1: RIPK4 (parent)
chain: VIDLFDEQGLSALHLAAQGRHAQT
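Also: lentivirally expressed fusions sorted by FACS into six bins by GFP to DsRed ratio, PSI derived from sequencing read proportions per bin multiplied by bin number.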

In this data set the parent is B1. Kind of data set: protein stability index of a GFP-peptide fusion (GPS, HEK-293T) (PSI 1-6); higher = more stable. The conditions noted are these: c terminus: a fixed tail appended.
On to VIDLFDESGLSALHLAAQGRHAQT [Q8S], for which the protein stability index was determined as 2.65.
On to VIDLFDEHGLSALHLAAQGRHAQT [Q8H], for which the protein stability index came out at 2.61.
Next, VIDLFDEPGLSALHLAAQGRHAQT [Q8P]: 3.22; VIDLFDEGGLSALHLAAQGRHAQT [Q8G]: 3.12; VIDLFDELGLSALHLAAQGRHAQT [Q8L]: 1.66.
For VIDLFDETGLSALHLAAQGRHAQT [Q8T], the protein stability index was 2.65.
For VIDLFDEDGLSALHLAAQGRHAQT [Q8D] the value was 3.07; for VIDLFDEYGLSALHLAAQGRHAQT [Q8Y], 2.25; for VIDLFDEKGLSALHLAAQGRHAQT [Q8K], 2.58.
Turning to VIDLFDEEGLSALHLAAQGRHAQT [Q8E], the protein stability index was 2.98.
Take VIDLFDERGLSALHLAAQGRHAQT [Q8R]: the protein stability index was determined as 2.82.
Take VIDLFDEIGLSALHLAAQGRHAQT [Q8I]: the protein stability index was 1.46.
Consider VIDLFDEWGLSALHLAAQGRHAQT [Q8W], for which the protein stability index turned out to be 1.45.
Turning to VIDLFDENGLSALHLAAQGRHAQT [Q8N], the protein stability index is 2.86.
Next, VIDLFDECGLSALHLAAQGRHAQT [Q8C]: 1.76.
In the case of VIDLFDEVGLSALHLAAQGRHAQT [Q8V], the protein stability index was 2.53.
VIDLFDEMGLSALHLAAQGRHAQT [Q8M]: the protein stability index came out at 2.08.
For VIDLFDEAGLSALHLAAQGRHAQT [Q8A] the value was 2.73; for VIDLFDEFGLSALHLAAQGRHAQT [Q8F], 2.05.
With VIDLVDEQGLSALHLAAQGRHAQT [F5V], the protein stability index worked out at 3.39.
VIDLNDEQGLSALHLAAQGRHAQT [F5N]: the protein stability index was 2.98.
Next, VIDLLDEQGLSALHLAAQGRHAQT [F5L]: 2.95; VIDLYDEQGLSALHLAAQGRHAQT [F5Y]: 3.22.
For the variant VIDLSDEQGLSALHLAAQGRHAQT [F5S], the protein stability index is 3.67.
On to VIDLIDEQGLSALHLAAQGRHAQT [F5I], for which the protein stability index is 2.89.
As to VIDLWDEQGLSALHLAAQGRHAQT [F5W], the protein stability index is 2.44.
For VIDLDDEQGLSALHLAAQGRHAQT [F5D] the value was 4.18; for VIDLQDEQGLSALHLAAQGRHAQT [F5Q], 3.91.
For VIDLRDEQGLSALHLAAQGRHAQT [F5R], the protein stability index was found to be 3.64.
As to VIDLTDEQGLSALHLAAQGRHAQT [F5T], the protein stability index stood at 3.94.
Next, VIDLGDEQGLSALHLAAQGRHAQT [F5G]: 3.86; VIDLCDEQGLSALHLAAQGRHAQT [F5C]: 3.08; VIDLEDEQGLSALHLAAQGRHAQT [F5E]: 4.6.
Turning to VIDLKDEQGLSALHLAAQGRHAQT [F5K], the protein stability index amounted to 4.16.
Next, VIDLMDEQGLSALHLAAQGRHAQT [F5M]: 2.78; VIDLHDEQGLSALHLAAQGRHAQT [F5H]: 3.9.
Next, VIDLADEQGLSALHLAAQGRHAQT [F5A]: 4.21.
For VIDLPDEQGLSALHLAAQGRHAQT [F5P] the value was 4.81; for VIDLFDYQGLSALHLAAQGRHAQT [E7Y], 1.48; for VIDLFDIQGLSALHLAAQGRHAQT [E7I], 2.2.
Take VIDLFDHQGLSALHLAAQGRHAQT [E7H]: the protein stability index amounted to 2.17.
For VIDLFDFQGLSALHLAAQGRHAQT [E7F] the value was 1.68; for VIDLFDKQGLSALHLAAQGRHAQT [E7K], 1.86.
In the case of VIDLFDCQGLSALHLAAQGRHAQT [E7C], the protein stability index was found to be 1.73.
For VIDLFDVQGLSALHLAAQGRHAQT [E7V] the value was 2.32; for VIDLFDDQGLSALHLAAQGRHAQT [E7D], 2.73; for VIDLFDGQGLSALHLAAQGRHAQT [E7G], 2.01.
Regarding VIDLFDRQGLSALHLAAQGRHAQT [E7R], the protein stability index came out at 1.98.
Next, VIDLFDNQGLSALHLAAQGRHAQT [E7N]: 2.36.
In the case of VIDLFDSQGLSALHLAAQGRHAQT [E7S], the protein stability index turned out to be 2.73.
For VIDLFDPQGLSALHLAAQGRHAQT [E7P] the value was 2; for VIDLFDQQGLSALHLAAQGRHAQT [E7Q], 2.35; for VIDLFDAQGLSALHLAAQGRHAQT [E7A], 2.23.
For VIDLFDLQGLSALHLAAQGRHAQT [E7L] the value was 1.92; for VIDLFDWQGLSALHLAAQGRHAQT [E7W], 1.98; for VIDLFDMQGLSALHLAAQGRHAQT [E7M], 1.1.
Regarding VIDLFDTQGLSALHLAAQGRHAQT [E7T], the protein stability index was found to be 2.45.
Next, VIDLFDEQGYSALHLAAQGRHAQT [L10Y]: 2.75; VIDLFDEQGGSALHLAAQGRHAQT [L10G]: 3.6.
For VIDLFDEQGTSALHLAAQGRHAQT [L10T] the value was 3.08; for VIDLFDEQGSSALHLAAQGRHAQT [L10S], 3.76; for VIDLFDEQGESALHLAAQGRHAQT [L10E], 4.48.
For VIDLFDEQGASALHLAAQGRHAQT [L10A] the value was 3.33; for VIDLFDEQGRSALHLAAQGRHAQT [L10R], 3.23.
Turning to VIDLFDEQGHSALHLAAQGRHAQT [L10H], the protein stability index worked out at 3.19.
As to VIDLFDEQGKSALHLAAQGRHAQT [L10K], the protein stability index amounted to 3.31.
In the case of VIDLFDEQGVSALHLAAQGRHAQT [L10V], the protein stability index was found to be 2.97.
For the variant VIDLFDEQGMSALHLAAQGRHAQT [L10M], the protein stability index was determined as 3.04.
For VIDLFDEQGNSALHLAAQGRHAQT [L10N] the value was 3.83; for VIDLFDEQGISALHLAAQGRHAQT [L10I], 2.67; for VIDLFDEQGDSALHLAAQGRHAQT [L10D], 3.93.
As for VIDLFDEQGPSALHLAAQGRHAQT [L10P], the protein stability index is 3.63.
In the case of VIDLFDEQGQSALHLAAQGRHAQT [L10Q], the protein stability index worked out at 3.25.
For the variant VIDLFDEQGWSALHLAAQGRHAQT [L10W], the protein stability index came to 2.23.
In the case of VIDLFDEQGFSALHLAAQGRHAQT [L10F], the protein stability index stood at 2.83.
As for VIDLFDEQGCSALHLAAQGRHAQT [L10C], the protein stability index came out at 3.2.
For VIDLFKEQGLSALHLAAQGRHAQT [D6K], the protein stability index is 1.81.
For VIDLFPEQGLSALHLAAQGRHAQT [D6P] the value was 3.13; for VIDLFMEQGLSALHLAAQGRHAQT [D6M], 1.97.
For VIDLFREQGLSALHLAAQGRHAQT [D6R] the value was 2.04.
Next, VIDLFIEQGLSALHLAAQGRHAQT [D6I]: 4.12; VIDLFGEQGLSALHLAAQGRHAQT [D6G]: 1.77; VIDLFTEQGLSALHLAAQGRHAQT [D6T]: 2.15.
With VIDLFAEQGLSALHLAAQGRHAQT [D6A], the protein stability index was found to be 1.91.
For VIDLFWEQGLSALHLAAQGRHAQT [D6W] the value was 2.55.
Next, VIDLFEEQGLSALHLAAQGRHAQT [D6E]: 2.71.
Next, VIDLFFEQGLSALHLAAQGRHAQT [D6F]: 2.33; VIDLFYEQGLSALHLAAQGRHAQT [D6Y]: 1.63; VIDLFNEQGLSALHLAAQGRHAQT [D6N]: 1.96.
For VIDLFHEQGLSALHLAAQGRHAQT [D6H], the protein stability index came to 2.06.
As to VIDLFQEQGLSALHLAAQGRHAQT [D6Q], the protein stability index is 2.13.
Next, VIDLFCEQGLSALHLAAQGRHAQT [D6C]: 2.39; VIDLFSEQGLSALHLAAQGRHAQT [D6S]: 2.57; VIDLFVEQGLSALHLAAQGRHAQT [D6V]: 3.75.
